A protein production outcome set (Wang et al. 2014)

Assay: label from the status in PepcDB records

With “MKYSWNKTVFPIAAIFSFRLLGLFLLIPVFTLYATNLKGATPTLIGLALGSYGLAQGLLQIPFGMLSDKLGRKPMIAIGLLLFAGGSLLGAVTHSIAGMITARILQGAGAIGSVLIALLADLTLDEQRTKAMAIVGITIGTSFSLAMIISPALTHYYGLSGVFYLTAALAVLGIMILYLIIPNPSKEQFHADSEPSLSLIKPVVTDQHLQRLNFGIFCQHFILTATFFAIPMLLKYQIENGHLHQQWHFYLPLMLFSFILMVPFIIISERKKRLKTVFVISVLLTTFTQGLLVLASQNWYWFCILMFVYFVSFNVLEATLPSLVSKLASPGSKGTAMGIYSTSQFLGIFFGGSLAGILYQWYDNQAIFLINMILSCLWFIISLSMKSNVYFSTLILPFTANNEESKLVVNQLLKVAGIKEVILSKDENTLYVRVDNEEYSTGSAEKILHQSTIYQ” the protein production was “failed”.

With “MKYTIEEIRQMQEGQTFDCKSILIEPKHLATIIVAMANADGGMIAVGISDKTRRIEGVNQDKEHLNDILRTPLDFCVPSVSVTTDYVPCTDAEGRDNRVLLMHIPASPRLHANQADEVFWRVGDKSRKLTFDERLQLMYDKGERYYEDSTAYDATLDDIDMDAVKAYMKRIGYGKSAMEYLQENKGFVTYKGDVPQVSAACILLFGKHPQTFFPRARVRFIKYFGTEEKVGREMNVIKDVTFDGRILEQIQKTVEYLETQVKEHSYLGEDGIFKTDREYPKFVIQEMVVNSVCHRDYSIKGTEIQIKMFDDRLVFETPGKLPGIVRTDNIRHTHFSRNPKIAEFLKAYDYVKEFGEGVDRMCRELSALGVKEPQYNLVAFIMKATVCAKVLEERQGTNHFDQKRPESDQKSDQMRIILELIKSNPNISRTELSEKTGLHDSSVKRRLKTLVDEGLIQRVGPDKGGQWKVIGSLLEHHHHHH” the protein production was “not failed”.

For “MKYYDEVPIIRSVAAMLVVAIHTVNSIALSRGTFTSDGLGYVNQIARLGTPIFAVISAFLLTISVVNKGFNLDYFVKSRFSKIFIPYIIWTVFYLLYRAFYLHNLEDDGKLLNYFVYGKANFHLYFILTVIQFYFLFPLLQKFKKGWPIIIVYILATIANIIWIRMGPVSLGGGGVERFVNDKLFIMNWISFFMLGIVYAKFYNEIRILIFKHKAILSTIIGILFIDFLLSIDLDHLQSSITVSNMIYIPFFIVFLNYLYEHVKKNHTILKTLTLIGNYSMGIYLVHYVAIQFVKRLPIIEDIVPQSKFMGVFILTVAVSVLIVYLIGKIPYGNYIVPIPKKKATQTTDVDKKKVTQSKHTPNYNS”, the protein production was “failed”.

For “MLAAAVLPKLLRHMPLSMPMVFLGSGILAFTLLPELPDPDPVKYGDFTTHLTEVCVIISLMGAGLALDRPFRWRGWSTTWRLLGIVMPLCILVMTLLGLWVLGLGLAGAILVAGAIAPTDPVLASEVQVGKPADAEDDPDEDEVRFALTSEAGLNDGLAFPFVYLAILISLVGASPDAWLGEWVALDVLWRTVAGVLVGFGTGKLLSMFFFAAKGKTFRLSEHSEGFVALAATFLAYGAAEMVEGYGFVAVFLCALTIRSAEHNHSYHQVLHSYVEQLERLMTVVILVLLGGAIARGLLEGIGWTEVLVALAFLLLVRPLAGWLGLMGGKTGPRERLAISYFGIRGIGSLFYVAYALTHGNFDAEARELWALIGLVVALSIVVHGATTAPLMNRLDRLRVAEARKQHGDEGRAPTTAV”, the protein production was “failed”.

For “MLAAEANLELDRETIRRQLWQSEAPEKRAGSLRQLLARIEQSIPAALPPLLKATRTHIGLADGWEVDVHMLKQKGPLAAEDGDILNGELLESAKSPTQGAEDWLTFERQRVDELRAAHLTRLVETAEDRSDEEQVAFARRLLELDPASETAYRALMRTYVRMNDPAAARQTYLKCKSQLKDEFDAEPEESTTALARELGLIPAAQPAAAERPSAGPSGFADLLGQPRIIILPPESIFTDPLMERVGRALLEDVTIGLSQQRGFRVIAAHTSLEILSRSVDPARAVPRPLDLSFDYAVYVTIQGRDEDVYATCRLTRTTTSEVIWALELPLVMQKISESFAHLTRRIVSSLADTVERHELAMPIGDAPPSAYRLYLEGKRLIAQTDLQHLRQARKWFKSSLNRYENFSAAHAGVSRALGMEWLIRGMQDTELLDEANGAARQAQQSDPNSGRAYRELGFVALYRRRFDESLDYFQQAQDLNPNDADILADYADALCHYGDFDKALDLNNAAFKLNPLPPDYYYWNRGGIHFDRGEYQQAIEALEPVKSKQATARLLAAAHAMAGDMKKAGGYASVVLDNFPDFRSEDIRHFVPDRDPRYTETLIHGLHLAGLP”, the protein production was “failed”.

With “MLAEAGTGTGVAAAASHDAPPKAVPRQLPAPPRITAFLSAFATPPPHCLRLNKSLNGLHNPVTLHVVCQYMLLRSVHGGRERYLNAHVSQGSWPVLVLNADFRPLSYYPLSLWSWQDAIKAVFLDRVNIVAHYDQAVRSPTLEMQLPSVVSLKSFVKPTTHPAFTRFNVFLRDRFACQYCGSPEDLTFDHIIPRSKGGQTTWENVVAACSPCNLRKGNLTPAQAKMFPRQSAFAPTVHQLHRNGRMFPPNYLHDSWLDYLYWDTELDP” the protein production was “failed”.

With “MLAILIFSFLLVILVAGNNSSAVSGTIIGSKMMNKSLALAITAVGYIAGYLLEGRFLQHAVNELLPFEPEYVLYAIIASFVIFTIAFFVKVPISLTMALVGSAIGLSLKLGYSSDARFLTEVIIAWIAAPLISVGSSYVFNDRLSKMRHGDIWRYASAIKVMPIVTAIFTAFTLGANTIGFLGDISGTAVFNEILISIGSVIGTFFFSSGIMKSVSQNMYMMKYTNAFSSQLISALVVEVSTLFSIPMSNTQTLTSAVLGAGLSYRAKAIYLKPFLYIVIMWILSPLIGMAFTYALA” the protein production was “failed”.

For “MLAKIIMKNFKSFKNETVIDFTRINYKFLENNVSNNGVLKGVAFYGANASGKSNVLWAIRFLLDELFGEEKNPVTFMKCLFSDEPEFSLQYFFVIESREIHYLIDFHTEKGIINEELYLDRKLLLQRMGSTAKSGITEKKVYTDLNNKVLFLRTVYFNTGFSGDDKDNNANNNILRQWFDYMQNSIYVNPFLHRGIAYGKQDVVLNKYLENEGVKEINRFFTKYNFEYTLDYLNERKVKDVTEIVNDDNIKLVFFNRKGVNVPIPYVLESHGNQNLLNILPCFLRVVQNSGMLLVDEFSGGLHNELERLLVNYFFLEHHHHHH”, the protein production was “failed”.

In the case of “MLAKSLGWLLAVSRRNYCMGSRTALASRPWSKHLADPQIDPTAYVHSFANVVGDVRIQPGVSVAPGSSIRADEGTPFWIGGNVLIQHGVVIHGLETGRVLGDDDQEYSVWIGPGTCVAHLALVHGPVYLGANCFIGFRSTVLNARVGDGAVVMMHSLVQDVEIPPNKLVPSGAMITQQHQADSLPDVQAGDRHFVQQIAAMHGQSASPTQGTDPTVCVLPESLPAVTPVTETPYINSIDNMSINSDITNQIRSLLAQGYGIGAEHANERRFKTKSWQSCGTADGFRPDQVIATVEGWLQEFAGEYVRLIGIDQGAKRRVVEVIIQRPGDVPGSPSRGTTTTKALSSGGSGRSAVAHQTGNLAGDSANQLRALLHQGYKIGLEYASARRFKTGSWLTGGTIGSHREGEALQELNRFLADHTNEYVRIIGIDPAGKRRVAEIVVHRPNGNGNGKPSSSSSSVGYKSAPVSSAGGSSAGGLTPEVIATVRGLLANGHSIGTEHTDKRRFKAKSWDTCPTIDGGREAEVLAKLEACLADHAGEYVRIIGIDRVGKRRVLEQIIQRPGDNVVAGRSPSSSSASTSSSASSNGFGSGNGGGYSNSAVRLDNSVVTQVRSLLAQGYKIGTEHTDKRRFKAKSWQSCAPITSTHESEVLRALEGCLADHNGEYVRLLGIDPTAKRRVLETIIQRP”, the protein production is reported as “failed”.

In the case of “MLALPTTFAKSPIDNEASIEETTPKWSVNSPQGNFTTADIDVRSGTWMNVDLNPDGKTIIFDLLGDIYTMPASGGEATPLMTDIAWQMQPRFSPDGKYIAFTSDEDGGDNLWIMKADGSEAKAVTTETFRLLNSPAWSPDGNYIVGRKHYTGTRSLGAGEVWMYHKSGGNGVMLTKRPNEQKDLGEPAFSHDGKYVYFSQDATPGKSFHYSKDSEKGIYKIKRLELETGEIKVVVSGKGGAIRPTLSPDGKYLAFISRDDFQSNLYLYNLKNGEQSKVYDGLDRDMQETWAIHGVYPTMAWTPDSEGLVFWSGGKINKLSLDSKKAKVIDFHVKTTKKIQTAVRFPQDLDQKSFDTKMLRDVKVSPNGKLAVYESMGHLYTKSLPKGKPKRLTKQKSQFELNPSFSRDGKKIVYVSWDDKNLGQVRVVSSRGGKGKTITREPGKYVEPSFSPDGKAVVYRKVTGGFITDPTWGLNPGVYAVSVKGGKAKLVTEEGVQPHFGARNDRIYVTRDGETPHISRIDIDGQHDTKLYQGKFASEYRVSPDGNYLAFAERFKVFVTPFVERGDVIDIGPKAENLPVEQLSMRAGEGINWNGKSNELYWSLGADLYQASIKGLFDITAKTTDENDDGSEPETSASTVVNDINVINLSYKQKVDIPSGHVAFVGGKVITMEGEQVIDNGVVLVEGNKIKAVGTKGQVNIPSDATIIDITGKTVMPGLIDAHAHGPQGSNEIIPQQNWKNYAGLALGVTTIHDPSNDTTEFFAASEMQKAGKIVAARLFSTGTILYGATIPGYTSHVDSLDDAKFHVERLKAAGAFSVKSYNQPRRNQRQQFIQAARELEMMVVPEGGSLLQHNLTMVVDGHTTLEHSISTAKIYADIKQLWSQSDMAYTPTMGVAYGGISGENYWYDTTNVWEHPRLSQYVPSEFLDPRSMRRPKAPLHHYNHFNVAKVAKEMQDLGVVVNAGGHGQREGLAMHWEMWMMAQGGMSPLQAIRTATISPAKSLGLDKDLGSLTVGKLADMIVIDGDITQDIRLSDKVTHTMINGRLYNADTMNEIGNYDNKREKFYFENK”, the protein production is reported as “failed”.

In the case of “MLAMKLGIVGLGGWVTGAHIPALTDLGIKVDYCADIDEKRVKDLSQKTGCKGYLDYKEMLRNENPDLVLVAVPHSLHAIIALDAINNDANVYVEKPMATSFQEALTLVEASRKRNKILVVGHENRFNPAMLIAKKLIRGGEVGKIYHMRGFYIRQRGIPTSPTFIKKDLAKGGAVFDIGTHIIDLLLFLSDFPTPKSVTGKTYNAFSEDKTKFSAYPSPNLPNFKVEVEDFGSAFLKLGDEISAYVEVSWASYIKENKMEVVILGDNGGIHIDNGVLNFMRNIEDELFISSPLTQQKGSVYREVWRTVMESISKGFPEYPLCSAEQGAIGVAILESIYKSALEGREVKIDIPQWFLKQFQPRALEHHHHHH”, the protein production is reported as “failed”.

In the case of “MLCIPATRDQTVSSHPAGTRQKKLFSQNDYLAPLPLPTGQQPVDSLNIIWRKNEVYIDIGCYSVGSAVMVIWPMMIMFISLAYGLNDIDLLWLGVIITGIPTLMLIHGLLRPTPPPVRFNRQRREVCVPRDNGEYWIVPWESVTAASTQCSSIGQAGRVTMGLLFIGFENPDAEASEDNKHFSMGFNCGGGETAMALWECMRSYMEIGPEVVPESRVGAMPYEKTQIGSIVTSLRKGDVFDVLHGLFFITILGTYLAEKLQNLKLSPPPDLEYPDIIEWSKSLPPEQWATPSPELLAALARQAATS”, the protein production is reported as “failed”.

With “MLCLTKKRHGLRIEIPPMPILPARPLKYLLASIIALTAGGPDIAVAQAPDSVISQPGTAPASSFRTDRLPGGDVKPSDGVGVFDRMGAKLPDLPPEKDYKGPIDEAYGAYQRGYYLTAMDKALPRAQLGDPAAQTLIGEILSQGLGVKKDVKGAAFWYGKAAEGGDPAAMFKYALMLMEGQGVPRDKVKADDYMRKAAEAGNPSAEFNWAQIVVADNPGEKGLKLALPFYEKSAEQGIADSQYAVAQIYATLKDLPEEKKRLAREWMARAARAGFDTAELDLGIWLVNGVGGPKDYVKGFEWLKLAANGGNVVAQNKLAHLYINAIGTPPNPVEAAKWYVLSRRAGLADPSLEDFYLGIEDDQQKAAIDAANKFRRR” the protein production was “failed”.

In the case of “MLCTYHAGQWFNNLLNFIDFIRLQFGKTANVLNLNDCLHIWLFSLEVRSLRDVVKMKLILSIMILSGCLLFILAGCARKNDYMPPAGATGEKIFKGACVQCHTPVNGKVMILRSEMANKEAIIERVTNGKGFGMPAFPNLTGDSVQNLAEYVLENSVTR”, the protein production is reported as “failed”.

With “MLDAILSNYLYYPSILAFLFGVLMGAKYRHKIGNIFGYLILTVVIAYFLKAFPYYDLLPLSCSYLSAVIGIIIGNRLFGGKMI” the protein production was “failed”.
